In article PMC5584928 one finds response data, which are given here for four molecules.

The assay deals with T1, integrin αvβ3 on β3-CHO cells (recombinant hamster αv/human β3 hybrid), P05106.
T1 chain: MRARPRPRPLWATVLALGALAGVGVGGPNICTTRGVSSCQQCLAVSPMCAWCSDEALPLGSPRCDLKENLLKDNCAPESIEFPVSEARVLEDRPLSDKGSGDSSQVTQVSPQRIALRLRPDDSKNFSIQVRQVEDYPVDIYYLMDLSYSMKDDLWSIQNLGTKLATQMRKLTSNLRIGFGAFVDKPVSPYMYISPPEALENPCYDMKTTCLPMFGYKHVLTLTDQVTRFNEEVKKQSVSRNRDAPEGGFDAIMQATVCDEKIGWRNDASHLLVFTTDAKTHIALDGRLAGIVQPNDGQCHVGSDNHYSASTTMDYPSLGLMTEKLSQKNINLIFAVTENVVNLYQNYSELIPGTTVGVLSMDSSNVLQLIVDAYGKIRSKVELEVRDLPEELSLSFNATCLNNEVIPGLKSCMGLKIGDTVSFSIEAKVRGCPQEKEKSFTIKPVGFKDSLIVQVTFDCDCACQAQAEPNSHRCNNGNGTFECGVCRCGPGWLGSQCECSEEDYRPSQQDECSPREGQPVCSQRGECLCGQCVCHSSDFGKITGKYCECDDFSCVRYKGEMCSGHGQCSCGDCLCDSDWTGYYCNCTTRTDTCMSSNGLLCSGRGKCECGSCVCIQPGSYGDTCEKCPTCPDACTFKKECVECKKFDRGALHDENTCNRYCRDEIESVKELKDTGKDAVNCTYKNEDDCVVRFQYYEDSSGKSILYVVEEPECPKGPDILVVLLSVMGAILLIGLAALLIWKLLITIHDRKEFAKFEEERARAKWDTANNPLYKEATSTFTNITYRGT
In words: cell adhesion assay (β3-CHO cells on coated IGF2). The following applies: chain shown with the change, Tyrode-HEPES buffer, 1 mM Mg2+, read off a plot.

The mark [1] stands for this setting: IGF2 coating 5 µg/ml, parent: est. 30.
Setting [2] is: IGF2 coating 10 µg/ml, parent: est. 43.
The mark [3] stands for this setting: IGF2 coating 20 µg/ml, parent: est. 56.

B1: WT IGF2 (insulin-like growth factor-2) R24E; R34E; R37E; R38E (protein)
chain: AYRPSETLCGGELVDTLQFVCGDEGFYFSRPASEVSEESRGIVEECCFRSCDLALLETYCATPAKSE
Take B1: the response (10 µg/ml IGF2, parent: est. 43) came to 15 % Adhesion.

B2: WT IGF2 (insulin-like growth factor-2) R24E; R37E; R38E (protein)
chain: AYRPSETLCGGELVDTLQFVCGDEGFYFSRPASRVSEESRGIVEECCFRSCDLALLETYCATPAKSE
With B2, the response runs as follows: (10 µg/ml IGF2, parent: est. 43) 16 % Adhesion; under setting [1], 9.5 % Adhesion; under setting [2], 16 % Adhesion; under setting [3], 17 % Adhesion.

B3: WT IGF2 (insulin-like growth factor-2) R34E; R37E; R38E (protein)
chain: AYRPSETLCGGELVDTLQFVCGDRGFYFSRPASEVSEESRGIVEECCFRSCDLALLETYCATPAKSE
For B3, the response turned out to be 15 % Adhesion (10 µg/ml IGF2, parent: est. 43); 6.5 % Adhesion under setting [1]; 16 % Adhesion under setting [2]; 15 % Adhesion under setting [3].

B4: WT IGF2 (insulin-like growth factor-2) R30E; R37E; R38E (protein)
chain: AYRPSETLCGGELVDTLQFVCGDRGFYFSEPASRVSEESRGIVEECCFRSCDLALLETYCATPAKSE
As for B4, the response turned out to be 25 % Adhesion (10 µg/ml IGF2, parent: est. 43); 20 % Adhesion under setting [1]; 25 % Adhesion under setting [2]; 36 % Adhesion under setting [3].
